Assay results: patent publication US20150322137A1 (EVEC, published 2015)

Assays:
[1] = biological target: T1, F protein of human metapneumovirus strain JPS05-21 (type B2), on infectious virus (human metapneumovirus, strain JPS05-21 …); assay: cell-based or functional assay
[2] = biological target: T2, F protein of human metapneumovirus strain JPS02-76 (type B1), on infectious virus (human metapneumovirus, strain JPS02-76 …, UniProt Q6WB98 19-539); assay: cell-based or functional assay
[3] = biological target: T3, F protein of human metapneumovirus strain JPS03-180 (type A1), on infectious virus (human metapneumovirus, strain JPS03-180 …); assay: cell-based or functional assay
[4] = biological target: T1, F protein of human metapneumovirus …; assay: cell-based or functional assay; remark: listed apart in the source
[5] = biological target: T2, F protein of human metapneumovirus …; assay: cell-based or functional assay; remark: listed apart in the source
[6] = biological target: T3, F protein of human metapneumovirus …; assay: cell-based or functional assay; remark: listed apart in the source
[7] = biological target: T4, F protein of human metapneumovirus strain JPS03-178 (type A2), on infectious virus (human metapneumovirus, strain JPS03-178 …); assay: cell-based or functional assay
[8] = biological target: T1, F protein of human metapneumovirus …; assay: cell-based or functional assay; remark: listed apart in the source
[9] = biological target: T3, F protein of human metapneumovirus …; assay: cell-based or functional assay; remark: listed apart in the source
[10] = biological target: T4, F protein of human metapneumovirus …; assay: cell-based or functional assay; remark: listed apart in the source
[11] = biological target: T2, F protein of human metapneumovirus …; assay: cell-based or functional assay; remark: listed apart in the source
[12] = biological target: FP-TM(-)-His, His-Tag-added hMPV (JPS02-76) FP lacking the transmembrane region (amino acid residues 491 to … (human metapneumovirus, strain JPS02-76 …, UniProt Q6WB98 19-490)); assay: SPR, Biacore T-200; antibody captured by anti-human IgG, FP-TM(-)-His as analyte
[13] = biological target: T1, F protein of human metapneumovirus …; assay: cell-based or functional assay; remark: listed apart in the source
[14] = biological target: T2, F protein of human metapneumovirus …; assay: cell-based or functional assay; remark: listed apart in the source
[15] = biological target: T3, F protein of human metapneumovirus …; assay: cell-based or functional assay; remark: listed apart in the source
[16] = biological target: T4, F protein of human metapneumovirus …; assay: cell-based or functional assay; remark: listed apart in the source
[17] = biological target: HA-V5-Full, hMPV (JPS02-76) FP with HA-Tag downstream of the signal peptide and linker and V5-Tag do (human metapneumovirus, strain JPS02-76 …); assay: cell fluorescent immunostaining, fixed transfected CHO-K1 cells
[18] = biological target: T2, F protein of human metapneumovirus …; assay: cell-based or functional assay; remark: listed apart in the source

B1: EV046116 (antibody, human IgG1, kappa, V domains shown)
VH: QVQLQESGPGLVKPSETLSLTCTVSGGSISRDYWSFIRQPAGKGLEWIGRIYHNGDTNYNPSLKSRVTMSQDTSKNQFFLRLRHVTAADTAVYYCAREGSAGTFGQADWGQGTLVIVYS
VL: EIVMTQSPATLSVSPGERATLSCRASQSISNNLAWYQQKPGQAPRLLIYGASTRATGIPARFSGGGSGTEFTLTISSLQSEDFAVYYCQQYENWLLYTFGQGTKLEIKR
- IC50, neutralizing activity (hMPV infection of LLC-MK2 cells) [1]: 0.25 µg/mL
- IC50, neutralizing activity (hMPV infection of LLC-MK2 cells) [2]: 0.25 µg/mL
- IC50, neutralizing activity (hMPV infection of LLC-MK2 cells) [3]: 0.31 µg/mL
- IC90, neutralizing activity (hMPV infection of LLC-MK2 cells; GraphPad Prism 6) [4]: 0.828 µg/mL
- IC90, neutralizing activity (hMPV infection of LLC-MK2 cells; GraphPad Prism 6) [5]: 3 µg/mL
- IC90, neutralizing activity (hMPV infection of LLC-MK2 cells; GraphPad Prism 6) [6]: 1.03 µg/mL
- IC90, neutralizing activity (hMPV infection of LLC-MK2 cells; GraphPad Prism 6) [7]: 0.8 µg/mL
- IC50, neutralizing activity (hMPV infection of LLC-MK2 cells; GraphPad Prism 6) [8]: 0.279 µg/mL
- IC50, neutralizing activity (hMPV infection of LLC-MK2 cells; GraphPad Prism 6) [9]: 0.351 µg/mL
- IC50, neutralizing activity (hMPV infection of LLC-MK2 cells; GraphPad Prism 6) [10]: 0.19 µg/mL
- IC50, cell-to-cell spread inhibitory activity (LLC-MK2 cells stably expressing TMPRSS2) [11]: 0.054 µg/mL
- IC90, cell-to-cell spread inhibitory activity (LLC-MK2 cells stably expressing TMPRSS2) [11]: 0.132 µg/mL
- Kd [12]: 1620 pM
- koff [12]: 0.000408 s⁻¹
- kon [12]: 252000 M⁻¹ s⁻¹
- IC60, neutralizing activity (hMPV infection of LLC-MK2 cells; GraphPad Prism 6) [13]: 0.341 µg/mL
- IC60, neutralizing activity (hMPV infection of LLC-MK2 cells; GraphPad Prism 6) [14]: 0.497 µg/mL
- IC60, neutralizing activity (hMPV infection of LLC-MK2 cells; GraphPad Prism 6) [15]: 0.428 µg/mL
- IC60, neutralizing activity (hMPV infection of LLC-MK2 cells; GraphPad Prism 6) [16]: 0.247 µg/mL

B2: EV046113 (antibody, human IgG1, kappa, V domains shown)
VH: QVQLVESGGGLVRPGGSLRLSCAASGFTFSDYFMTWIRQAPGKGLEWVSYINSIGSVIFYADSVEGRFTVSRDNTMKSLFLQMNSLTAEDTAVYYCARSCRISYGASGGFSCGMDVWGQGTPVTVSS
VL: DIQMTQSPSSLSASVGDRVTITCQASQSIRENINWYQQKTGKAPKLLIYDASILETGVPSRFSGSGSGTHFTFTISSLQPEDMATYYCQQYHHLITFGQGTRLDIKR
- IC50, neutralizing activity (hMPV infection of LLC-MK2 cells) [1]: 0.39 µg/mL
- IC50, neutralizing activity (hMPV infection of LLC-MK2 cells) [2]: 0.68 µg/mL
- IC50, neutralizing activity (hMPV infection of LLC-MK2 cells) [3]: 0.38 µg/mL
- binding result [17]: binds
- IC90, neutralizing activity (hMPV infection of LLC-MK2 cells; GraphPad Prism 6) [4]: 2.29 µg/mL
- IC90, neutralizing activity (hMPV infection of LLC-MK2 cells; GraphPad Prism 6) [5]: 1.48 µg/mL
- IC90, neutralizing activity (hMPV infection of LLC-MK2 cells; GraphPad Prism 6) [6]: 1.39 µg/mL
- IC90, neutralizing activity (hMPV infection of LLC-MK2 cells; GraphPad Prism 6) [7]: 1.56 µg/mL
- IC50, neutralizing activity (hMPV infection of LLC-MK2 cells; GraphPad Prism 6) [8]: 0.491 µg/mL
- IC50, neutralizing activity (hMPV infection of LLC-MK2 cells; GraphPad Prism 6) [9]: 0.418 µg/mL
- IC50, neutralizing activity (hMPV infection of LLC-MK2 cells; GraphPad Prism 6) [10]: 0.645 µg/mL
- IC50, cell-to-cell spread inhibitory activity (LLC-MK2 cells stably expressing TMPRSS2) [11]: 0.108 µg/mL
- IC90, cell-to-cell spread inhibitory activity (LLC-MK2 cells stably expressing TMPRSS2) [11]: 0.707 µg/mL
- Kd [12]: 265 pM
- koff [12]: 0.000123 s⁻¹
- kon [12]: 463000 M⁻¹ s⁻¹
- IC60, neutralizing activity (hMPV infection of LLC-MK2 cells; GraphPad Prism 6) [13]: 0.652 µg/mL
- IC60, neutralizing activity (hMPV infection of LLC-MK2 cells; GraphPad Prism 6) [14]: 0.819 µg/mL
- IC60, neutralizing activity (hMPV infection of LLC-MK2 cells; GraphPad Prism 6) [15]: 0.522 µg/mL
- IC60, neutralizing activity (hMPV infection of LLC-MK2 cells; GraphPad Prism 6) [16]: 0.76 µg/mL

B3: EV046120 (antibody, human IgG1, lambda, V domains shown)
VH: EVQLVESGGGLVKPGGSLRLSCAASGFTFSSYSMNWVRQAPGKGLEWVSSISSSSSYIYYADSLKGRFTVSRDNAKKSLYLQMNSLRAEDTAVYYCARVDYGTNSEVGRFDPWGQGTLVTVSS
VL: QSVLTQPPSVSGTPGQRVTISCTGSSSNIGAGYAVHWYQQLPGTAPKLLIYDSINRPSGVPDRFSGSKSGTSASLAITGLQTEDEADYYCHSYDRSLSGSVFGGGTKLTVLG
- IC50, neutralizing activity (hMPV infection of LLC-MK2 cells) [1]: 0.24 µg/mL
- IC50, neutralizing activity (hMPV infection of LLC-MK2 cells) [3]: 0.32 µg/mL
- IC90, neutralizing activity (hMPV infection of LLC-MK2 cells; GraphPad Prism 6) [4]: 0.694 µg/mL
- IC90, neutralizing activity (hMPV infection of LLC-MK2 cells; GraphPad Prism 6) [5]: 1.65 µg/mL
- IC90, neutralizing activity (hMPV infection of LLC-MK2 cells; GraphPad Prism 6) [6]: 1.88 µg/mL
- IC90, neutralizing activity (hMPV infection of LLC-MK2 cells; GraphPad Prism 6) [7]: 0.653 µg/mL
- IC50, neutralizing activity (hMPV infection of LLC-MK2 cells; GraphPad Prism 6) [8]: 0.249 µg/mL
- IC50, neutralizing activity (hMPV infection of LLC-MK2 cells; GraphPad Prism 6) [18]: 0.241 µg/mL
- IC50, neutralizing activity (hMPV infection of LLC-MK2 cells; GraphPad Prism 6) [9]: 0.3 µg/mL
- IC50, neutralizing activity (hMPV infection of LLC-MK2 cells; GraphPad Prism 6) [10]: 0.0971 µg/mL
- IC50, cell-to-cell spread inhibitory activity (LLC-MK2 cells stably expressing TMPRSS2) [11]: 0.0132 µg/mL
- IC90, cell-to-cell spread inhibitory activity (LLC-MK2 cells stably expressing TMPRSS2) [11]: 0.0669 µg/mL
- IC60, neutralizing activity (hMPV infection of LLC-MK2 cells; GraphPad Prism 6) [13]: 0.301 µg/mL
- IC60, neutralizing activity (hMPV infection of LLC-MK2 cells; GraphPad Prism 6) [14]: 0.344 µg/mL
- IC60, neutralizing activity (hMPV infection of LLC-MK2 cells; GraphPad Prism 6) [15]: 0.421 µg/mL
- IC60, neutralizing activity (hMPV infection of LLC-MK2 cells; GraphPad Prism 6) [16]: 0.138 µg/mL
